Results as given in PMC4831018.

Tests used:
[1] = biological target: TgVps29-cMyc (Toxoplasma gondii); assay: affinity purification with mass spectrometry; absolute quantification of TgVps35, TgVps26 and TgVps29 in the immunoprecipitates by microLC-SRM with stable isotope-labelled standard peptides, three proteotypic peptides per protein
[2] = biological target: TgVps26-HA (Toxoplasma gondii); assay: as above

Substance TgVps35-HA (natural protein) has a stoichiometry N (TgVps35 per TgVps29) [1] of 3 and a stoichiometry N (TgVps35 per TgVps26) [2] of 1.
